Square brackets hold non-standard residues; d marks the D form. Peptide text beside a SMILES is read from it. * marks the point of attachment. IRDye800CW = CC1(C)C(/C=C/C2=C(Oc3ccc(S(=O)(=O)O)cc3)C(=C/C=C3/N(CCCCS(=O)(=O)O)c4ccc(S(=O)(=O)O)cc4C3(C)C)/CCC2)=[N+](CCCCCC(=O)*)c2ccc(S(=O)(=O)[O-])cc21; Cha = N[C@@H](CC1CCCCC1)C(=O)O; AEEA = NCCOCCOCC(=O)O
How the values were obtained:
[1] = biodistribution by organ fluorescence imaging; format: in vivo, mice; conditions: 3 nmol, 1 h
Description: […] Due to renal excretion, the fluorescence signal in the kidneys were out of scale compared to all the other organs. […] The skin was imaged partially (1.25 g) and the biodistribution was extrapolated with respect to the full weight of the skin (4.9 g).

[2] = system: orthotopic GBM (U-87 MG-luc2 cells); experiment: in vivo binding specificity in orthotopic GBM (blocking with AE120, scrambled probe); set-up: species or system mice; conditions: 3 nmol, 1 h
Method: The target specificity to uPAR was evaluated by two different methods: competitive blocking with the uPAR targeting peptide AE120 ((DChaFsrYLWSG)2-βAK) and IRDye800 conjugated to a scrambled peptide, AE354 (IRDye800CW-Glu-Glu-NH—CH2—CH2—O—CH2—CH2—O—CH2—CO—NH—CH2—CH2—O—CH2—CH2—O—CH2—CO-Asp-Cha-Glu-(D)Ser-(D)Arg-Tyr-Leu-Glu-Ser-OH) with similar peptide length as the active peptide. The competitive blocking dose of 1.4-2.8 mg AE120 was injected intraperitoneally 15-30 min prior to intravenous injection of 3 nmol IRDye800CW-AE344 and imaged at 1 h (n=5). The scrambled peptide was administered at 3 nmol and the animals were imaged after 1 h (n=4).
Images were analyzed and processed in ImageJ 1.52a, NIH, USA. Signal measurements were performed on the raw images generated by the Fluoptics system. Tumor signal was measured as a mean fluorescence intensity of the whole tumor and background signal was measured as the mean of a representative area with no tumor on the contralateral hemisphere. Presented pictures are contrast enhanced in ImageJ with the Contrast Enhancement (Saturated pixels: 0.3%).

uPAR wt = uPAR wt (Homo sapiens, UniProt Q03405); experiment: SPR inhibition of uPAR binding to immobilized uPA
Method: Covalent immobilization of purified human prouPA^S356A—was accomplished by injecting 12.5 μg/ml protein dissolved in 10 mM sodium acetate (pH 5.0) over a CM5 chip that had been pre-activated with NHS/EDC (N-ethyl-N′-[3-[…])propyl]-carbodiimide), aiming at a surface density of >5000 resonance units (RU) corresponding to 100 fmols/mm^2. After coupling the sensorchip was deactivated with 1 M ethanolamine. Binding of purified human uPAR as analyte was measured from 4 nM to 0.25 nM at 20° C. using 10 mM HEPES, 150 mM NaCl, 3 mM EDTA (pH 7.4) containing 0.05% (v/v) surfactant P20 as running buffer at a flow rate of 50 μl/min. In between cycles the sensorchip was regenerated by two consecutive 10-μl injections of 0.1 M acetic acid/HCl (pH 2.5) in 0.5 M NaCl. The inhibition of 3-fold dilutions of the compounds in question was measured for 4 nM uPAR with identical running conditions. All experiments were performed on a BiacoreT200 instrument.
For each inhibition peptide inhibition profile of uPAR binding to immobilized uPA there has been run a preceding standard curve and all calculations are based on the that standard curve.
Surface plasmon resonance (SPR) was applied to determine the […]-value of IRDye800-AE344 on the uPAR⋅uPA interaction in solution using a Biacore 3000 instrument essentially as described. In brief; pro-uPA^S356A, which is the natural ligand for uPAR. […] The analysis was carried out by measuring vobs of a fixed uPAR concentration (2 nM) incubated with a 3-fold dilution series of IRDye800-AE344 (ranging from 0.076 nM to 1.5 μM) for 300 sec at 20° C. with a flow rate of 50 μL/min. A standard curve was measured in parallel (2-fold dilution of uPAR covering 0.06 nM to 2 nM) including one repeated concentration point at the end to validate the biological integrity of the sensor chip. Running buffer contained 10 mM HEPES, 150 mM NaCl, 3 mM EDTA and 0.05% (v/v) surfactant P20, pH 7.4. The sensor chip was regenerated with two injections of 0.1 M acetic acid, 0.5 M NaCl. The parent nonamer peptide antagonist AE105 (Asp-Cha-Phe-D-Ser-D-Arg-Tyr-Leu-Trp-Ser-OH) was analyzed in parallel as positive control and the closed uPAR^H47C-N259C was used as negative control as its uPA binding cavity cannot accommodate AE105.

[3] = acute toxicity: liver and kidney histology; format: in vivo, mice; conditions: 3 nmol, 1 h post injection
Description: Liver and kidneys: Tissue was formalin fixed and paraffin embedded. Sections of 2-4 um thick were cut and a routine staining panel applied including: H&E, modified sirius, PAS and Masson trichome for both and additional PAS with silver for kidneys and PAS with diastase, iron, reticulin artisan and oxidised orcein for the livers. Livers were immunohistochemically stained, immunohistochemical evaluation on 3 μm thick sections was done using the CK7 antibody from Dako/Agilent, GA619 (clone OV-TL12/30) following the manufacturer's instructions. The staining took place on the Omnis from Agilent utilizing the EnVision Flex+ detection kit (GV800). The primary antibody was diluted using Antibody Diluent (Dako DM830) and were incubated for 20 minutes. The sections were counterstained with hematoxylin.

Chain of uPAR wt (Q03405 23-305 limits assumed): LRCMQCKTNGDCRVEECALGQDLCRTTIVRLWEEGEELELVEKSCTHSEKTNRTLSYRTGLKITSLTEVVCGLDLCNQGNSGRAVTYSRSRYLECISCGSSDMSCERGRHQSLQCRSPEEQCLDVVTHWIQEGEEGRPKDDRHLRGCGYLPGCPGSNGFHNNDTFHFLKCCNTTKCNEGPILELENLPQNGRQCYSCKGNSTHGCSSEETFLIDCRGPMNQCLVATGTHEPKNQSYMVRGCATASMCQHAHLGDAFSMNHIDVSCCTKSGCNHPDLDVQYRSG

Work on `CC(C)C[C@H](NC(=O)[C@H](Cc1ccc(O)cc1)NC(=O)[C@@H](CCCNC(=N)N)NC(=O)[C@@H](CO)NC(=O)[C@H](Cc1ccccc1)NC(=O)[C@H](CC1CCCCC1)NC(=O)[C@H](CC(=O)O)NC(=O)COCCOCCNC(=O)COCCOCCNC(=O)[C@H](CCC(=O)O)NC(=O)[C@H](CCC(=O)O)NC(=O)CCCCC[N+]1=C(/C=C/C2=C(Oc3ccc(S(=O)(=O)O)cc3)C(=C/C=C3/N(CCCCS(=O)(=O)O)c4ccc(S(=O)(=O)O)cc4C3(C)C)/CCC2)C(C)(C)c2cc(S(=O)(=O)[O-])ccc21)C(=O)N[C@@H](Cc1c[nH]c2ccccc12)C(=O)N[C@@H](CO)C(=O)O` [IRDye800CW-AE344, IRDye800-Glu-Glu-O2Oc-O2Oc-Asp-Cha-Phe-D-ser-D-arg-Tyr-Leu-Trp-Ser-OH] (IRDye800CW-EE[AEEA][AEEA]D[Cha]F[dS][dR]YLWS-OH) yielded an MFI brain ([1]; 333 ms exposure) of 19 a.u, an MFI liver ([1]; 333 ms exposure) of 88 a.u and an MFI lungs ([1]; 333 ms exposure) of 101 a.u. For the same compound, the MFI skin ([1]; 333 ms exposure) was 99 a.u, the MFI tumor ([1]; 333 ms exposure) was 65 a.u and the normalized uptake brain ([1]; normalized to skin=100) was 0.7. It also gave a normalized uptake colon ([1]; normalized to skin=100) of 4.0, a normalized uptake heart ([1]; normalized to skin=100) of 0.4 and a normalized uptake kidneys ([1]; normalized to skin=100) of 38.8. It also gave a normalized uptake liver ([1]; normalized to skin=100) of 12.2, a normalized uptake lungs ([1]; normalized to skin=100) of 4.2 and a normalized uptake pancreas ([1]; normalized to skin=100) of 3.4. The “normalized uptake small intestine” value ([1]; normalized to skin=100) was 11.2, the normalized uptake spleen ([1]; normalized to skin=100) was 0.4 and the normalized uptake tumor ([1]; normalized to skin=100) was 0.1. For the same compound, the normalized uptake ventricle ([1]; normalized to skin=100) was 0.9, the normalized uptake skin ([1]; skin = reference) was 100 and the MFI kidneys ([1]; extrapolated from 40 ms exposure) was 1,236 a.u. For the same compound, the TBR ([2]; blocked with AE120) was 4.6, the “normalized TBR (ref: active probe)” value ([2]; competitively blocked with AE120) was 0.70 and the TBR ([2]; no blocking) was 6.6. For the same compound, the “normalized TBR (ref: active probe)” value ([2]; no blocking) was 1.00, the IC50 (uPAR wt) was 20 ± 1.1 nM and the “kidney histology (H&E stained)” value [3] was “normal”. The “liver histology (H&E stained)” value [3] was “normal”.

Reference: patent US20210138090A1, “uPAR targeting peptide for use in peroperative optical imaging of invasive cancer” (FLUOGUIDE A/S, priority 2014, published 2021)
